The values below come from patent publication US20220363775A1 (Memorial Sloan Kettering, published 2022).

The target of experiment [1] is T1, human Adhesion G protein-coupled receptor E2 (ADGRE2) (human, UniProt Q9UHX3 24-823).
T1 construct: No signal peptide limits are stated; also called EMR2; CD312
T1 sequence: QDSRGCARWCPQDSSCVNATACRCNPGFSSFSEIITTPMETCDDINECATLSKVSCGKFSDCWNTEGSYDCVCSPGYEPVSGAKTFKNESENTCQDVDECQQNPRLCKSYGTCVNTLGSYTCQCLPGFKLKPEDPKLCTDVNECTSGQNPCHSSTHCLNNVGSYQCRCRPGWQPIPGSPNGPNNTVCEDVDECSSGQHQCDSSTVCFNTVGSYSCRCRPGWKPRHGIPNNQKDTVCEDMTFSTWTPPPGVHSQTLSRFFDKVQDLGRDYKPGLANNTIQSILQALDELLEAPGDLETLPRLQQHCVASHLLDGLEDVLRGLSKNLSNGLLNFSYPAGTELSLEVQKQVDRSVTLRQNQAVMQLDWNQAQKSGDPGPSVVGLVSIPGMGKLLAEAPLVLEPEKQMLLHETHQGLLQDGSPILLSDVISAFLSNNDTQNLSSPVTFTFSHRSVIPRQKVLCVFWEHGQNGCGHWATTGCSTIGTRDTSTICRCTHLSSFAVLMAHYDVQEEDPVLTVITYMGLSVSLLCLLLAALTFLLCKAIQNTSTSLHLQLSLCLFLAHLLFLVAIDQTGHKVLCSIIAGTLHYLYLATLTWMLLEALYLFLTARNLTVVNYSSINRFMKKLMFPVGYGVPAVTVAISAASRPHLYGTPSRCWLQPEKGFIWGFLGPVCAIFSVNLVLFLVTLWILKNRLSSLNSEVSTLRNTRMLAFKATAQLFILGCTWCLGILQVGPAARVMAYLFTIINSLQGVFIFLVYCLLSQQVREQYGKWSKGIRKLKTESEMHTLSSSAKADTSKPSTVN
The experiment is described as follows: flow cytometry, scFv titration on EL4 cells overexpressing ADGRE2. On the procedure: This example illustrates the on-cell binding for the anti-ADGRE2 scFvs as measured by flow cytometry. The on-cell binding for the anti-ADGRE2 scFvs was assessed by flow cytometry on the E4 cells overexpressing ADGRE2. Each of the scFvs were tested for binding to ADGRE2 and compared to the Reference 1 mAb. Briefly, 100,000 cells per well, were plated in 96 well V bottom plate, scFvs were diluted to 200 nMscFv then 1:4 serially down to 0.01 nM. A dose dependent titration of the scFvs validated recombinant scFvs folding and binding to ADGRE2. EC₅₀ affinities were compared in order to better interpret any differences seen in-vivo that might be caused by variations in affinities resulting from the humanization process Data was analyzed using Prism software, using a four parameter regression. The approximate EC₅₀ values were determined using equation: Y=Bottom+(Top−Bottom)/(1+10\hat{ }((Log EC₅₀−X)*HillSlope)) where the fitted parameters are defined as follows: Bottom, the lower plateau describing minimum binding achievable; Top, the upper plateau describing the maximum binding achievable; Log EC50, the inflection point of the dose response curve also known as the concentration producing a half-maximal response; and Hill-Slope, the slope of the dose response curve.

The target in a further experiment is T2, ADGRE1 (human, UniProt Q14246 21-886).
T2 construct: whole, on cells
T2 sequence (looked up): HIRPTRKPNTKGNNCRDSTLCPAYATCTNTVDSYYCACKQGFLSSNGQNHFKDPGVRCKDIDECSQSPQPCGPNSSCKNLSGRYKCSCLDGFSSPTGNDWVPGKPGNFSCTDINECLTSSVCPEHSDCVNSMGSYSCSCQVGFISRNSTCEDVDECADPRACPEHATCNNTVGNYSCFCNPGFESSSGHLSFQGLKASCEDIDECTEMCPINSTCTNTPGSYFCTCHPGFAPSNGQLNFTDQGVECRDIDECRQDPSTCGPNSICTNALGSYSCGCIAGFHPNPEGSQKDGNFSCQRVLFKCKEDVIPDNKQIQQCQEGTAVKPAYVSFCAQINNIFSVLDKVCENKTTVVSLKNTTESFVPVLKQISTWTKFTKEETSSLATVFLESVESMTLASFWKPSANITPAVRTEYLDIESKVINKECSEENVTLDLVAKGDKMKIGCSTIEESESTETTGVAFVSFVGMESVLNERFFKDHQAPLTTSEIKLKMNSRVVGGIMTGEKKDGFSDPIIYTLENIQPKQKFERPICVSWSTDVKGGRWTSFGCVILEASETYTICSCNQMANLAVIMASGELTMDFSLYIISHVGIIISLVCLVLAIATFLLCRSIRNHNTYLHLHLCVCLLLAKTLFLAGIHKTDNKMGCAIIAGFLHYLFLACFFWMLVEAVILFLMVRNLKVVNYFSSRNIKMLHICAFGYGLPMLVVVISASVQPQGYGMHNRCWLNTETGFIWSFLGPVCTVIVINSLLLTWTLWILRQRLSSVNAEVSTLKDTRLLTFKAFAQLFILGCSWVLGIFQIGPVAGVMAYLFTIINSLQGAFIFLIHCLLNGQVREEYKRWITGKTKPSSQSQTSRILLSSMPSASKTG
The experiment is described as follows: cell microarray screen on HEK293 cells overexpressing human membrane proteins. As for the experimental part:
(§1) The off-target binding interactions of ADGRE2 scFv (ADGRE2-A) and CLEC12A scFv (CLEC12A-A) to human plasma membrane proteins were carried out in a 4-phase approach: (1) pre-screening to determine the optimal concentrations of purified recombinant ADGRE2 scFv-Fc and CLEC12A scFv-Fc test proteins for the screening; (2) screening for binding of the test proteins against fixed HEK293 cells overexpressing 5,474 full-length human plasma membrane proteins and cell surface tethered human secreted proteins and 371 human cell surface heterodimers, which identified library hits; (3) confirmatory/specific screens using fixed-cell and live-cell microarrays; (4) flow cytometry-based follow-on study to investigate further identified test protein-specific interactions on live cells; and (5) cell-to-cell binding assays to confirm positive hits. The table below summarizes the off-binding data for ADGRE2 scFv and CLEC12A scFv.

The next experiment addresses T3, ADGRE5 (human, UniProt P48960 21-835).
T3 construct: whole, on cells
T3 sequence (looked up): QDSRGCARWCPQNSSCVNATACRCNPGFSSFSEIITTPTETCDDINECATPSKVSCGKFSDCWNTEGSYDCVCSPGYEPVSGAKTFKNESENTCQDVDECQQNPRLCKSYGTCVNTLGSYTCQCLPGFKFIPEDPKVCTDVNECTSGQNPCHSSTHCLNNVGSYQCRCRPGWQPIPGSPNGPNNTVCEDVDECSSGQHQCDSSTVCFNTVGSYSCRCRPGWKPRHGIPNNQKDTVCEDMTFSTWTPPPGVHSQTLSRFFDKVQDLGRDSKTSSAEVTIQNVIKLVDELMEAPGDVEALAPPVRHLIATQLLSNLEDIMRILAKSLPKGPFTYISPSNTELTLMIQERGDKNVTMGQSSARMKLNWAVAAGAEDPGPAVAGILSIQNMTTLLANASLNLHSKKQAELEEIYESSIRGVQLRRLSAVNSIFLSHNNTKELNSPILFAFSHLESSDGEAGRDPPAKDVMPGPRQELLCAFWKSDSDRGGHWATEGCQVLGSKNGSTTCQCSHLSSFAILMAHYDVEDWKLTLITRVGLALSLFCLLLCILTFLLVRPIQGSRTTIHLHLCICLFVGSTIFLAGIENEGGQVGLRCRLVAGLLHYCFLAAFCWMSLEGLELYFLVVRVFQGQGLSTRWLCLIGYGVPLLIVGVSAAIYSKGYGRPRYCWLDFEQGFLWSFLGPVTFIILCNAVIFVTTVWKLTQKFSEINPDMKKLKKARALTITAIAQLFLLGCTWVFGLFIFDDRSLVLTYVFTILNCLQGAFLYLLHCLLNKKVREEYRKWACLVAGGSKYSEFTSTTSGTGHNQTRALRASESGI
Described as above. As for the experimental part: as §1

Another experiment concerns the target T4, ADGRE3 (human, UniProt Q9BY15 22-652).
T4 construct: whole, on cells
T4 sequence (looked up): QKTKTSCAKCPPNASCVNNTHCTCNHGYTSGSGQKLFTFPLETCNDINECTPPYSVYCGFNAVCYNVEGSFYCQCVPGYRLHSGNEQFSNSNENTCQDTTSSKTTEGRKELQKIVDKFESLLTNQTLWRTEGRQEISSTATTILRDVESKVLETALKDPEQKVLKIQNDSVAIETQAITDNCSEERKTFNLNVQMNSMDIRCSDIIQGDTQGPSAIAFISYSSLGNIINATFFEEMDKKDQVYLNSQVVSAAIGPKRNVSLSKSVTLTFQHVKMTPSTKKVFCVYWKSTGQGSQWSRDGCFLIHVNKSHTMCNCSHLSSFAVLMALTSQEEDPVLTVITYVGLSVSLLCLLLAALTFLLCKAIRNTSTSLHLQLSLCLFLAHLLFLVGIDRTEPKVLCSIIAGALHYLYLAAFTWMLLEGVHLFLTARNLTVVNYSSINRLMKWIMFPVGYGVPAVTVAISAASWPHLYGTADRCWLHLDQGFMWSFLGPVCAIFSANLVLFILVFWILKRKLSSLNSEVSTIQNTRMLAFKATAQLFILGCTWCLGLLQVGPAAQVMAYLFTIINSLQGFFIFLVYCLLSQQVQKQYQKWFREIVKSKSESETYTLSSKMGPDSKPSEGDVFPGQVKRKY
Described as above. As for the experimental part:
as §1

B1: ADGRE2-C scFv (scFv)
scFv: QVQLQQSGAEVKKPGASVKLSCKASGYTFTNYWMQWVRQAPGQGLEWIGAVYPGDGDTRYTQKFQGRATLTADTSTSTVYMEVSSLRSEDTAVYYCARGFTAYGMDYWGQGTTVTVSSGGGGSGGGGSGGGGSEIVLTQSPATMSASPGERVTMSCSASSSVSYMHWYQQKSGLSPKRWIYDTSKLASGVPDRFSGSGSGTDYTFTISRMEPEDFATYYCQQWSSNPLTFGGGTKLEIK
notes: Recombinant humanized scFv; Any tag is not described
As a reminder, the EC50 is the concentration needed to bring the measured effect to its halfway point. A low value points to higher potency in that assay. Take B1: it took 53.2 nM to reach a half-maximal effect in experiment [1] (EC50).

B2: ADGRE2-B scFv (scFv)
scFv: QVQLQQSGAEVKKPGASVKLSCKASGYTFTNYWMQWIRQAPGQGLEWIGAVYPGDGDTRYTQKFQGRATLTADTSISTAYMEVSRLRSDDTAVYYCARGFTAYGMDYWGQGTTVTVSSGGGGSGGGGSGGGGSEIVLTQSPATMSASPGERVTMSCSASSSVSYMHWYQQKSGLSPKRWIYDTSKLASGVPDRFSGSGSGTDYTFTISRMEPEDFATYYCQQWSSNPLTFGGGTKLEIK
notes: as for B1
On to B2, for which the EC50 in experiment [1] was found to be 55.3 nM.

B3: ADGRE2-A scFv (scFv)
scFv: QVQLQQSGAEVAKPGASVKLSCKASGYTFTNYWMQWIKQAPGQGLEWIGAVYPGDGDTRHTQKFKGKATLTADKSTSTAYMEVSSLRSEDTAVYYCARGFTAYGMDYWGQGTTVTVSSGGGGSGGGGSGGGGSEIVLTQSPATMSASPGERVTMSCSASSSVSYMHWYQQKSGQSPKRWIYDTSKLASGVPARFSGSGSGTDYTFTISSMEPEDFATYYCQQWSSNPLTFGGGTKLEIK
notes: as for B1
B3: in experiment [1], the response was half-maximal at 93.8 nM (EC50).

B4: ADGRE2-F scFv (scFv)
scFv: QVQLQQSGAEVKKPGASVKLSCKASGYTFTNYWMQWIRQAPGQGLEWIGAVYPGDGDTRYTQKFQGRATLTADTSTSTAYMEVSSLRSEDTAVYYCARGFTAYGMDYWGQGTTVTVSSGGGGSGGGGSGGGGSEIVLTQSPATLSASPGERVTMSCSASSSVSYMHWYQQKPGLAPRRWIYDTSKLASGVPDRFSGSGSGTDYTFTISRMEPEDFATYYCQQWSSNPLTFGGGTKLEIK
notes: as for B1
As to B4, the 50% effective concentration (EC50) in experiment [1] was determined as 16.4 nM.

B5: ADGRE2 scFv-Fc (purified recombinant ADGRE2-A scFv fused to Fc) (Fc fusion)
chain: QVQLQQSGAEVAKPGASVKLSCKASGYTFTNYWMQWIKQAPGQGLEWIGAVYPGDGDTRHTQKFKGKATLTADKSTSTAYMEVSSLRSEDTAVYYCARGFTAYGMDYWGQGTTVTVSSGGGGSGGGGSGGGGSEIVLTQSPATMSASPGERVTMSCSASSSVSYMHWYQQKSGQSPKRWIYDTSKLASGVPARFSGSGSGTDYTFTISSMEPEDFATYYCQQWSSNPLTFGGGTKLEIK
notes: also called ADGRE2 scFv (ADGRE2-A); not shown: Fc part (and any linker) of the scFv-Fc is not described
Take B5: the binding result with ADGRE1, with ADGRE5 and with ADGRE3 was “no binding” in each case.

B6: ADGRE2-E scFv (scFv)
scFv: QVQLQQSGAEVKKPGASVKVSCKASGYTFTNYWMQWVRQAPGQGLEWIGAVYPGDGDTRHTQKFKGRVTMTADKSTSTVYMELSSLRSEDTAVYYCARGFTAYGMDYWGQGTLVTVSSASTGGGGSGGGGSGGGGSQIVLTQSPATLSLSPGERATLTCSASSSVSYMHWYQQKPGLSPKRWIYDTSKLASGVPDRFSGSGSGTDYTFTIRRLEPEDFATYYCQQWSSNPLTFGQGTKVEIK
notes: as for B1
In turn, B6 had an EC50 in experiment [1] of 10.6 nM.

B7: ADGRE2-D scFv (scFv)
scFv: QVQLQQSGAEVKKPGASVKVSCKASGYTFTNYWMQWVRQAPGQGLEWMGAVYPGDGDTRHTQKFKGRVTMTRDTSTSTVYMELSSLRSEDTAVYYCARGFTAYGMDYWGQGTLVTVSSASTGGGGSGGGGSGGGGSEIVLTQSPATLSLSPGERATLSCSASSSVSYMHWYQQKPGLAPRLLIYDTSKLASGIPDRFSGSGSGTDFTLTISRLEPEDFAVYYCQQWSSNPLTFGQGTKVEIK
notes: as for B1
In experiment [1], B7 returned an EC50 of 16.4 nM.
